# Reference: the nanobody polyreactivity screen of Harvey et al. (2022)
# Assay: yeast display, Sf9 membrane polyspecificity reagent, FACS + sequencing; frameworks hold sequencing errors
# How it was run: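 In a synthetic yeast display library (Saccharomyces cerevisiae BJ5465), nanobody expression was induced with galactose for 36–48 hours. FACS gates were set low and high (top ~1%) using anti-HA fluorescence for expression and streptavidin fluorescence for binding of the Sf9 membrane reagent. Each polyreactivity label is drawn from the gate of origin.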
row,Sequence,polyreactivity (PSR sort gate)
1,QVQLVESGGGLVHARGSLRLSCAASGCTFVRNAMGWYRPAPGKERELGAAITSRGGSTYYADSVKGRFTISRDNAKNTVYLQMNSLKPEDTAVYYCAARFGVKRGQYDFWGQGTQVTVSS,high polyreactivity
2,QVQLVESGRGIVQAGGSLRLSCAASGIIFGGNAMVWYRQAPGKERELVARIRWGGGSTYYADSVKGRFTISRDNAKNTVYLQMNSLKPEDTAVYYCARTTSYLTSTRRYYYWGQGTQVTVSS,high polyreactivity
3,QVQLVESGGGLVQAGGSLRLICAASGSIFRYYTMGWYRQGPGKERELVARISSSGSTNYADSVKGRFTISRDNAKNTVYLQMNSLKPEDTEVYYCAARAFSWAGYYYWGQGTQVTLSS,low polyreactivity
4,QVQLVESGGGLVQAGGSLRLSCAASGNTFLRNTMGWYRQAPGTERELVAAISWGGGTTYYADSVKGRFTISRDNAKNTVYLQMNILKPEDTAVYYCNARYYSRRGNSWGQGTQVTVSS,high polyreactivity
5,QVQLVESGGGLVQAGGSLRLSCAASGSTFWPNAMGWYRQAPGKERELVAGITTSSGSTFYADSVKGRFTISRDNAKNTVYLQMNSLKPADTAVYYCNARVRRRRYKYDYWGQGTQVTVSS,high polyreactivity
6,QVHLVESGGGLVQAGGSLRLSCAASGRTFRDYTMGWYRQAPGKEREFVAAISSTGSTNYADSVKGRFTISRDNAKNTVYLQMNSLKPEDTAVYYCAADGRRWLGWYGYYYWGQGTQVTVSS,low polyreactivity
7,QVQLVESGGGLVQAGGSLRLSCASSGSIFYVYAMGWYRQAPGKERELVATIDWSGGSTYYADSVKGRFTISRDNAKNTVYLQMNSLKPEDTAVYYCAAYGLYGYRRRYRVSFTPYDYWGQGTQVNVSS,low polyreactivity
8,QVQLVETGGGLVQAGGSLRLRGAASGSTNYNYAMGWYRQAPGKERELVAAISISGGSPYYADSVKGRFTISRDNANNTVYLQMYSLKAEDTAVYYCAAVRLGSRGGYCGQGTQVTVSS,high polyreactivity
9,QVQLVESGGGLVQAGGSLRLSCAASGSIFRYYAMGWYRQAPGKDRELVAVITRGGSTYYADSVKGRFTISRDNAKNTVYLQMNSLKPEDTAVYYCAADSWPAGLDRGYWGQGTQVTVSS,low polyreactivity
10,QVQLVESGVGLVQAGGSLRLSCAASGITLYNYAMGWYRHAPGKERELVAAISLSGGRTYYADSVKGRFTISRDNAKNTVYLQMNSLKPEDTAVYYCAADWLNSDPYNYWGQGTQVTVSS,low polyreactivity
11,QVQLVESGGGLVQAGGSLRLSCAASGITFTPYAMGWYRQAPGKERELVAAITSGGSTNYADSVKGRFTISRDNAKNTVYLQMNSLKPEDTAVYYCAAGRWPAPWYTRNYWGQGTQVTVSS,low polyreactivity
12,QVQLVESGGGLVQAGGSLRLSCAASGSIFFYYAMGWYRQAPGKERELVAAINSDGSTNYADSVKGRFTISRDNAKNTVFLQMNSLKPEDTAVYYCAAEWFPYRWGYGYWGQGTEVTVSS,low polyreactivity
13,QVQLVESGGGLVQAGGSLRLSCAASGRIFGYYAMGWYRQAPGTERELVASIRRGTRTNYADSVKGRFTISRDNAKNTVYLQMNSLKPEDTAVYYCAATRFQFTTTPWYDYWGQGTQVTVSS,high polyreactivity
14,QVQLVETGGGIVQAGASLRLSCAASGRIFPPYAMGWYRQAPGKERELVAAISSSGGSTYYADSVKGRFTISRDNGKNTVYLQMNSLKPEDTAVYYCATFFARGYNSWGQGTQVTVSS,high polyreactivity
15,QVQLVESGGGLVQAGGSLRLSCAATGFIFERNAMGWYRQAPGKERELVAVISYSGGRTYYADSVKGRFTISRDNANNTVYLQMNSLKPEDTAVYYCAATIVKYGYHYDYWGQGTQVTVSS,high polyreactivity
16,QVQLVESGGGLVQAGGSLRLSCAASGSIFTLYAMGWYIQAPGKEREFVAGMSFSTGRTYYADSVKGRFTISRDNAKNTVYLQMHSLTPEDTAGYYCAAYVSHYWYGLYRDGYWGQGTQATVSS,low polyreactivity
17,QVQLVESGGGLVQAGGSLRLSCAASGSTFAFYAMGWYRQAPGKERELVAAISSSGARTYYADSVKGRFTISRYNAKNTVYLQMNSLKPEDTAVYYCAAAFYRLYITSYYYWGQGTQVTVSS,high polyreactivity
18,QVQLVESGGGLVQAGGSLRLSCAASGRTFRYNAKGSYIQAPGKERELVAAINWNGGSTYYADSVKGSFTISRDNAKNTVYLQMNSLKQEDTAVYYCNADFYHRYDWGQGTQVSVSS,high polyreactivity
19,QVQLVESGGGLVQAGGSLRLICAASGRIFSLYAMGWYRQAPGKERELVAAITWSSGSTYYADSVKGRFTISRDNAKNTVYLQMNSLKPEDTAVYYCNAVWRTRDYDYWGQGTQVTVSS,low polyreactivity
20,QVQLVESGGGLVQAGGSLRLSCAASGNIFVYYAMGWYRQAPGKERELVASITTSGGSTYYADSVKGRFTISRDNAKNTVYLQMNSLKPEDTAVYYCAALYYYWMDYWGQGTQVTVSS,low polyreactivity
21,QVQLVESGGGLVQAGGSLRLSCAASGITFRTNTMGWYRQAPGKERELVAAITRSGVTTYYADSVKGRFTISRDNAKNTVYLQMNSLKPEDTAVYYCAARSTKYLYGYWGQGTQVTVSS,high polyreactivity

row,Sequence,polyreactivity (PSR sort gate)
1,QVQLVESGGGLVQAGGSLSLSCAASGSIYWYAMGWYRQAPGKERELVSAISRRGGSTYYADSLKGRFTISRDNAKNTVYLQMNSLKPEDTAVYYCAVGIYGEYDYWGQGTQVTVSS,high polyreactivity
2,QVQLVESGGGLVQAGGSLRLSCAASGLTFEDYAMGWNRQEPGKEREFVAAISTSGGRTYYADSVKGRFTISRDNAKNTVYLQMNSLKPEDTAVYYCAAGGWYGYVYRFYYWGQGTQVTVSS,high polyreactivity
3,QVQLVESGGGLVQAGGSLRLSCAASGSIFTAYTMGWYRQAPGKERELVAAITERGGSTYYADSVKGRFTISRDNAKNTVYLQMNSLKPEDTAVYYCNAVWYFKPPPLYYIPYRQYDYWGQGTQVTVSS,low polyreactivity
4,QVQLGESGGGLVQAGGSLRLSCAASGFTFHLYAMGWYRQAPGKERELVAAISQSGDSTYYADSVKGRFTISRDNAKNTVYLQMNSLKPDDTAVYYFNADNDGVVWSYPFDFDYWGQGTQVTVSS,low polyreactivity
5,QVQLVESGGGLVQAGGSLRLSCAASGSIFRYYAMGWYRQAPGKEREFVAAINTNDAGTYYADSVKGRFTISRDYAKNTVYLQMNSLKPEDTAVYYCAADTGYRFWYDYWGQGTQVTVSS,high polyreactivity
6,QVQLVESGGGLVQAGGSLRLSCAASGRIFVYYAMGWYRQAPGKERELVAAITASGASTYYADSVKGRFTISRDNAKNTVYLQMNSLKPEDTAVYYCNVLYPRKYWQVREYYWGQGTQVTVSS,high polyreactivity
7,QVQLVESGGGLVQAGGSLRLSCAASGRIFNYNAMGWYRQAPGKERELVATITYSDATTYYADSVKGRFTISRDNAKITVYLQMNSLKPEDTAVYYCNAPSRSYDRYISAGRRYDYWGQGTQVTVSS,low polyreactivity
8,QVQLVESGGGLVQAGGSLRLSCAASGFTFTRYAMGWYRQAPGKERELVAAMTTNSGSRTYYADSVKGRFTISRDNAKNTVYGQMNSLKPEDTAVYYCAADGPVVRGYYWGQGTQVTVSS,high polyreactivity
9,QVQLVESGGGLVQAGRSLRLSCAASGRTFCYYAMGLYRKAPGKERELIAAITNRGGNTYYADSVKGRFTISRDNAKNTVYLQMNSLKPEDTAVYYCAAYNRIYGYHTLYYWGQGTQVTVST,high polyreactivity
10,QVQLVESGGGLVQAGGSLRLSCAASGSIFRGYAMGWYRQAPGKERELVAAITKIGASTYYADSVKGRFTISRDNAKNTVYLQMYSLKPEDTAVYYCNKDRGITPYRAYWGMDYWGQGTQVTVSS,low polyreactivity
11,QVQLVESGGGLVQAGGSLRLSCAASGRTFTGNVMGWYIKAPGKERELVAAISRSGTSTYYADSVKGRFTISRDNAKNTVYLQMNSRKPEDTAVYYCAARRTAGYRSAEYDYWGQGTQVTVSS,high polyreactivity
12,QVQHVESGGGLVQAGGSLRLSSAASGRTFFRSAMGWYRQAPGKERELVAAISSRGGSTYYADSVKGRFTISRDNAKNTVYLHMNSLKPEDTAVYYCNAAAFINFILYDYWGQGTQVTVSA,high polyreactivity
13,QVQLVESGGGLVQAGGSLRLSCAASGSTFVYAMGWYRQAPGKERELVAAITTGDSTYYADSVKGRFTISRDNAKNTVYLQMNSLKPEDTAVYYCAAQWYTRYGEYGYWGQGTQVTVSS,low polyreactivity
14,QVQLVESGGGLVQAGGSLRLSCAASGRTFDLYAMGWYRQAPGKEREFVAAISWRGGRTYYADSVKGRFTISRDNAKNTVYLQMNSQKPEDTAVYYCAARTGATSRIRFDYWGQGTQVTVSS,low polyreactivity
15,QVQLVESGGGLVQAGGSLRLSCAASGSIFDVNAMGWYRQAPGKERELVAAISQRGTRTYYADSVKGRFTISRDNAKNTVYLQMNSLKAEDTAVYYCNRGGWRQYDSWGQGTQVTVSS,high polyreactivity
16,PVQLVESGVCLVQAGGSLRLSCATPGSTIDFYAMGWYRQAPGKERELVARISSGGGRTYYADSVKGRFTISRDNAKNTVYLQMISLKPEDTAVYYCAAAYWYLDYYWGQGTQVTVSS,low polyreactivity
17,QDQLVESGGGLVQAGGSLRLSCAASRITIYRYVMGWYRQAPGKERELVAAITSAGSTNYADSVKGRFTISRDHAKTTVYLQMNSLKPEDTAVYYCNADYKGYVRPYVRIRYGYWGQGTQVTVSS,low polyreactivity
18,QVQLVESGGGLVQAGGSLRLSCAASGRIFGSYAMGSYRQAPGKERELVAAINWRGGSTFYADSVKGRFTISRDNAKNTVYLQMNSLKPEDTAVYYCARRGYRQSGDYWGQGTQVTVSS,low polyreactivity
19,QVQLVESGGGLVQAGGSLRLSCAASGITLKRYAMGWYRQAPGKERELVAAITGRGGGTNYADSVKGRFTISRDNAKNTVYLQMNSLKPEDTAVYYCTAATYGDYSNLGYGYWGQGTQVTVSS,high polyreactivity
20,QVQLVESVGGLVQAGGSLRLSCAASGSIFRLYALGWSRQAPGKERELVAAIRYSTGRTYSADSVKGRFTISRDNAKNTVYLQMNSLKPEDTAVYYCNARSWYIRGSQEYYYWGQGTQVTVSS,high polyreactivity
